The record followed here is article PMC12691606.

The experiment has as its target RGNNV capsid protein (CP) of the virus (red-spotted grouper nervous necrosis virus (RGNNV)).

B1: His-EcCXCR4b recombinant protein (pET-32a-EcCXCR4b) (receptor)
chain: MSYYEHIVFDYDLNDTGSGSGSGDMGVDLQELCDMEHVITDELQQVFLPVVYALIFILGITGNGLVVIVLGCQRRSKCSLTDRYRLHLSAADLLFVLALPFWAVDAALADWRFGEVTCVGVNVIYTVNLYGSVLILAFISLDRYLAVVRATDTNTGELRQLLAHKLVYVGAWLPAGLLAVPDLIYARTQEGGEGATLCQRFYPADNGPIWVAVFHLQLVLVGLVIPGLVLLVCYCVIVTRLTRGPLGGQRQKRRAVRTTIALVLCFFVCWLPYGAGISVDALLRLEVLPRSCRLEAILGVWLAVAEPMAFAHCCLNPLLYAFLGAGFKSSARRALTLSRASSLKILPRRRPGASTTTESESSSLHSS
Molecule B1 displayed a survival rate of groupers over 14 days after injection of RGNNV pre-incubated with His-EcCXCR4b protein (6× His control: 23.3%) of 73.3%.
